tested on: Escherichia coli TOP10; assay: shrunken log2 fold change of peptide-encoding DNA abundance (4.5 h post-induction vs induction); higher = less antimicrobial activity (less host growth inhibition); conditions: time post-induction: 4.5 h; library: site-saturation at positions 5, 18, 19, 20
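Also: peptides expressed intracellularly from a pBAD plasmid library in pooled LB shake-flask culture, induced with 0.3% L-arabinose, DNA abundance read by NGS, three biological replicates, DESeq2 with apeglm shrinkage.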

| Sequence | shrunken log2 fold change |
| --- | --- |
| RRIRVRPPRLPRPRPRPFKLPRP | -0.277 |
| RRIRYRPPRLPRPRPRPFDCPRP | -0.0565 |
| RRIRPRPPRLPRPRPRPKRFPRP | 0.297 |
| RRIRTRPPRLPRPRPRPCCAPRP | 0.125 |
| RRIRTRPPRLPRPRPRPSENPRP | -0.0993 |
| RRIRARPPRLPRPRPRPVDYPRP | 0.197 |
| RRIRARPPRLPRPRPRPSLKPRP | -0.0764 |
| RRIRGRPPRLPRPRPRPYFYPRP | -0.03 |
| RRIRMRPPRLPRPRPRPSNSPRP | -0.192 |
| RRIRHRPPRLPRPRPRPAQIPRP | 0.276 |
| RRIRQRPPRLPRPRPRPYWQPRP | -0.411 |
| RRIRVRPPRLPRPRPRPSMCPRP | -0.528 |
| RRIRERPPRLPRPRPRPFNKPRP | -0.383 |
| RRIRWRPPRLPRPRPRPQPMPRP | 0.145 |
| RRIRLRPPRLPRPRPRPEACPRP | -0.0158 |
| RRIRQRPPRLPRPRPRPWVSPRP | -0.0689 |
| RRIRRRPPRLPRPRPRPGAFPRP | 0.539 |
| RRIRRRPPRLPRPRPRPVYAPRP | 0.21 |
| RRIRRRPPRLPRPRPRPDAFPRP | 0.737 |
| RRIRHRPPRLPRPRPRPIPDPRP | -0.275 |
| RRIRWRPPRLPRPRPRPIYEPRP | -0.355 |
| RRIRWRPPRLPRPRPRPWFGPRP | -0.0254 |
| RRIRRRPPRLPRPRPRPYPHPRP | -0.181 |
| RRIRHRPPRLPRPRPRPHWEPRP | -0.211 |
| RRIRTRPPRLPRPRPRPDFTPRP | -0.0888 |

| Sequence | shrunken log2 fold change |
| --- | --- |
| RRIRQRPPRLPRPRPRPVRPPRP | 0.162 |
| RRIRSRPPRLPRPRPRPILAPRP | -0.162 |
| RRIRERPPRLPRPRPRPFHVPRP | -0.854 |
| RRIRERPPRLPRPRPRPKQDPRP | -0.252 |
| RRIRRRPPRLPRPRPRPMSVPRP | -0.0792 |
| RRIRVRPPRLPRPRPRPQTQPRP | 0.104 |
| RRIRKRPPRLPRPRPRPPKDPRP | 0.498 |
| RRIRSRPPRLPRPRPRPQAFPRP | -0.114 |
| RRIRFRPPRLPRPRPRPLMQPRP | -0.0117 |
| RRIRWRPPRLPRPRPRPESSPRP | 0.759 |
| RRIRFRPPRLPRPRPRPVEHPRP | -0.0778 |
| RRIRPRPPRLPRPRPRPPFYPRP | 0.0888 |
| RRIRWRPPRLPRPRPRPNSPPRP | -0.255 |
| RRIRRRPPRLPRPRPRPSKQPRP | -0.118 |
| RRIRMRPPRLPRPRPRPPMMPRP | 0.609 |
| RRIRTRPPRLPRPRPRPRGRPRP | 0.593 |
| RRIRSRPPRLPRPRPRPWVGPRP | -0.452 |
| RRIRMRPPRLPRPRPRPLSPPRP | 0.345 |
| RRIRMRPPRLPRPRPRPYPFPRP | -0.0613 |
| RRIRLRPPRLPRPRPRPHYMPRP | -0.969 |
| RRIRMRPPRLPRPRPRPVRLPRP | 0.116 |
| RRIRGRPPRLPRPRPRPRQAPRP | 0.93 |
| RRIRSRPPRLPRPRPRPEELPRP | 0.176 |
| RRIRPRPPRLPRPRPRPYTDPRP | -0.562 |
| RRIRQRPPRLPRPRPRPTASPRP | -0.0116 |

| Sequence | shrunken log2 fold change |
| --- | --- |
| RRIRIRPPRLPRPRPRPQFYPRP | -0.945 |
| RRIRFRPPRLPRPRPRPGDFPRP | -0.209 |
| RRIRERPPRLPRPRPRPFTFPRP | -0.275 |
| RRIRFRPPRLPRPRPRPHHYPRP | -0.681 |
| RRIRCRPPRLPRPRPRPVYGPRP | -0.747 |
| RRIRLRPPRLPRPRPRPGQFPRP | 0.16 |
| RRIRPRPPRLPRPRPRPAQPPRP | 0.732 |
| RRIRQRPPRLPRPRPRPNPVPRP | -0.117 |
| RRIRHRPPRLPRPRPRPSRQPRP | 0.212 |
| RRIRSRPPRLPRPRPRPQACPRP | 0.125 |
| RRIRNRPPRLPRPRPRPFTRPRP | 0.00645 |
| RRIRWRPPRLPRPRPRPFMQPRP | -0.261 |
| RRIRWRPPRLPRPRPRPTVQPRP | 0.116 |
| RRIRMRPPRLPRPRPRPWGDPRP | 0.0652 |
| RRIRQRPPRLPRPRPRPKHKPRP | -0.0629 |
| RRIRPRPPRLPRPRPRPWTFPRP | -0.00547 |
| RRIRIRPPRLPRPRPRPNHDPRP | -0.832 |
| RRIRARPPRLPRPRPRPGNHPRP | -0.0331 |
| RRIRTRPPRLPRPRPRPPPKPRP | 0.82 |
| RRIRWRPPRLPRPRPRPLENPRP | 0.0135 |
| RRIRPRPPRLPRPRPRPFCAPRP | 0.0563 |
| RRIRVRPPRLPRPRPRPFSCPRP | -0.323 |
| RRIRIRPPRLPRPRPRPHDHPRP | -0.174 |
| RRIRVRPPRLPRPRPRPTMTPRP | 0.11 |
| RRIRERPPRLPRPRPRPDIAPRP | -0.0321 |
